Assay results from publication PMC10251734.

Target: SARS-CoV-2 Wuhan-Hu-1 spike, soluble trimeric, residues 1-1204, 6 proline mutations (SARS-CoV-2) (UniProt P0DTC2)
Experiment: SEC

## SARS-CoV-2 Wuhan-Hu-1 spike, soluble trimeric, residues 1-1204, 6 proline mutations (from UniProt P0DTC2 14-1204) (domain or fragment)
  stoichiometry N: 3
